Laboratory results as given in patent US20100222408A1 (Johns Hopkins, published 2010).

Experiments:
[1] = biological target: T1, p97/valosin-containing protein (human, UniProt P55072 2-806); experiment: co-immunoprecipitation from bronchial brushings of ΔF508 CF subjects (IP gp78, immunoblot VCP)
T1 construct: Endogenous protein detected by immunoblot in immunoprecipitates; also called VCP; VCP/p97
Protocol: (§1) Cells were lysed directly on plates using M-PER (Pierce Biotech. Inc., Rockford, Ill.) protein lysis buffer containing protease inhibitor cocktail (Roche) after three washes with ice cold PBS. CF bronchial brushings were transferred to lysis buffer. For immunoprecipitation, 500 μg/ml (cell culture)/50 μg/ml (bronchial brushings) total protein extracts were incubated with 50 μl of protein A/G agarose beads (Santa Cruz Biotechnology Inc., Santa Cruz, Calif.) for 3 hours at 4° C. After preclearing, 5 μg of respective primary antibody or pre-immune sera (negative control) was added to each tube. After 1 hour, protein A/G agarose beads (50 μL) were added to each tube and tubes were incubated overnight at 4° C. Beads were washed once with lysis buffer (20 mM Tris-HC1 [pH 7.6], 150 mM NaCl, 0.5% Triton X-100 and 10 μM phenylmethylsulfonyl fluoride [PMSF]) followed with two washes with phosphate buffer saline (PBS). The beads were suspended in Laemmli's sample buffer (30 μL) containing β-mercaptoethanol, vortexed for 1 minute, resolved by 4-10% SDS-PAGE and transferred to a 0.4-μm pore size nitrocellulose membrane.

[2] = biological target: Hsc70 (human, UniProt P11142 2-646); experiment: co-immunoprecipitation from bronchial brushings of ΔF508 CF subjects (IP gp78, immunoblot Hsc70)
Protocol: as §1

T1 sequence (P55072 2-806 limits assumed): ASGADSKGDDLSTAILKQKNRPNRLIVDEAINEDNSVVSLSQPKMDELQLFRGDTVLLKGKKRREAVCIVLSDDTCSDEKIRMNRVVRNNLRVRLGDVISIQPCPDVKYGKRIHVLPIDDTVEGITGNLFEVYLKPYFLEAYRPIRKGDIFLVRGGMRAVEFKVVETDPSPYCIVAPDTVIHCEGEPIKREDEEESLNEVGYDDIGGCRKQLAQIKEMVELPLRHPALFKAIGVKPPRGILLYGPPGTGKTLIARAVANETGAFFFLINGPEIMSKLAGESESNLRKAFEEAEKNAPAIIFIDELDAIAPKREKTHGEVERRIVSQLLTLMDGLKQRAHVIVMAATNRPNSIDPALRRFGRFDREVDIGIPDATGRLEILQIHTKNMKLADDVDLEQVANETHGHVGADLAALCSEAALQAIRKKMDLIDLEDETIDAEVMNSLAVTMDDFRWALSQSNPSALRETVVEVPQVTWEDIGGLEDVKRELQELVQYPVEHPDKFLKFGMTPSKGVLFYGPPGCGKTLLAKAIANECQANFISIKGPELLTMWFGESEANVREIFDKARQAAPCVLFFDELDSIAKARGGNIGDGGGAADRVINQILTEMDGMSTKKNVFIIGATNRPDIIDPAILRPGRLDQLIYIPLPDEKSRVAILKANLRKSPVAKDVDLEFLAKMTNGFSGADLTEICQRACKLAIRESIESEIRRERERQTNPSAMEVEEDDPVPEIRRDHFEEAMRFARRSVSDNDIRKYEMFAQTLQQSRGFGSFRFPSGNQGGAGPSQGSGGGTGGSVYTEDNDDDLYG
Sequence of Hsc70 (P11142 2-646 limits assumed): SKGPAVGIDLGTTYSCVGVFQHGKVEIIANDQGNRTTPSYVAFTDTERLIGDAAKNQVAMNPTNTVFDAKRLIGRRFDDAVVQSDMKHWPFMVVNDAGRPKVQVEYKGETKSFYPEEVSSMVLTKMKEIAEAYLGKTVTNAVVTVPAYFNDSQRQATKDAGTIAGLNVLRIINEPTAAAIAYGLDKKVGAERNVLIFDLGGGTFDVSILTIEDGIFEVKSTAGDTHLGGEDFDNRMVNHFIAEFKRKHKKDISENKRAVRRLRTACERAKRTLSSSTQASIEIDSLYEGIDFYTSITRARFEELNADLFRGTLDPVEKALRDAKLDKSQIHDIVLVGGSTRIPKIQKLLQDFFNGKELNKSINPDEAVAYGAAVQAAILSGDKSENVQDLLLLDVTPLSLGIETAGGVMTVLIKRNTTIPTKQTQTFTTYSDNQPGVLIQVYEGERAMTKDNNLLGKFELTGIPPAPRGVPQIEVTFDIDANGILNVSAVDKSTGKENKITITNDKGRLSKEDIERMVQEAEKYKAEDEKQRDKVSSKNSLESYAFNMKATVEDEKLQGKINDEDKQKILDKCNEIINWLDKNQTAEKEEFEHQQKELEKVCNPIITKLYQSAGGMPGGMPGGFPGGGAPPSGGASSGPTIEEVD

- binding result [1]: no binding
- binding result [2]: no binding
B1: gp78 (enzyme, human, UniProt Q9UKV5 1-643, looked up)
chain: MPLLFLERFPWPSLRTYTGLSGLALLGTIISAYRALSQPEAGPGEPDQLTASLQPEPPAPARPSAGGPRARDVAQYLLSDSLFVWVLVNTACCVLMLVAKLIQCIVFGPLRVSERQHLKDKFWNFIFYKFIFIFGVLNVQTVEEVVMWCLWFAGLVFLHLMVQLCKDRFEYLSFSPTTPMSSHGRVLSLLVAMLLSCCGLAAVCSITGYTHGMHTLAFMAAESLLVTVRTAHVILRYVIHLWDLNHEGTWEGKGTYVYYTDFVMELTLLSLDLMHHIHMLLFGNIWLSMASLVIFMQLRYLFHEVQRRIRRHKNYLRVVGNMEARFAVATPEELAVNNDDCAICWDSMQAARKLPCGHLFHNSCLRSWLEQDTSCPTCRMSLNIADNNRVREEHQGENLDENLVPVAAAEGRPRLNQHNHFFHFDGSRIASWLPSFSVEVMHTTNILGITQASNSQLNAMAHQIQEMFPQVPYHLVLQDLQLTRSVEITTDNILEGRIQVPFPTQRSDSIRPALNSPVERPSSDQEEGETSAQTERVPLDLSPRLEETLDFGEVEVEPSEVEDFEARGSRFSKSADERQRMLVQRKDELLQQARKRFLNKSSEDDAASESFLPSEGASSDPVTLRRRMLAAAAERRLQKQQTS
notes: also called AMFR; AMFR/gp78
